# B1: mAb of B cell clone 203 (supernatant) (antibody, V domains shown)
# VH: QSLKESEGDLVKPGASLTLTCTASGFSFSSSYWICWVRQAPGKGLEWIACIYAGSSGSTYYASWAKGRFTISKTSSTTVTLEMTSLTDADTATYFCARGFSMFKLWGPGTLVTISS
# VL: ELVLTQTPSSVEAAVGGTVTIKCQASQSIGSYLAWYQQKPGQPPKLLIYKASTLSSGVSSRYKGSGSGTEFTLTISDLECDDAATYYCQYTSYSSGGAFGGGTEVVVK
# notes: rabbit
# B2: mAb of B cell clone 198 (supernatant) (antibody, V domains shown)
# VH: QSLEESGGGLVKPEGSLTLTCTASGFDLSNNYYICWVRQAPGKGLELIACVDSDLTDSADYASWAKGRFTISKTSSTTVTLQMTSLTAADTATYFCAGSGSGYYYYYGMDLWGPGTLVTISS
# VL: ELDMTQTPASVSEPVGGTVTIKCQASQSIGSYLAWYQQKPGQPPKLLAFYASTLKSGVPPRFKGSGSGTEFTLTISDLECADAATYYCQSNRLSSSDVNAFGGGTEVEIK
# notes: rabbit
# B3: mAb of B cell clone 56 (supernatant) (antibody, V domains shown)
# VH: QSLEESGGDLVQPEGSLTLTCTASGFSFSINLYMCWVRQAPGKGLEWIACIYGNNNANTYYTTWAKGRFTISKTSPTTVTLQMTSLTGADTATYFCARDTAAYYAFSLWGPGTLVTISS
# VL: ELVMTQTPSSSSAAVGGTVTIKCQASQSIGSRFAWYQQKPGQRPKLLIYEASKLPSGVPSRFKGSGSGTEFTLTISDLECADAAIYYCQCTYYESSSGGGFGGGTEVVVK
# notes: rabbit; also called B1-#56
# B4: mAb of B cell clone 210 (supernatant) (antibody, V domains shown)
# VH: QSVEESEGRLVTPGGSLTLTCTVSGIDLSSYAMGWVRQAPGKGLEWIGVIGKSGTTYYANWAKGRFTISKTSTTVDLQIASPTTEDTATYFCARAGASRSIYYDLWGQGTLVTISS
# VL: ELVLTQTPSSKSVAVGDTVTINCQASESVYGNNRCSWYQQKPGQPPKLLIYQASTLASGVPSRFSGSGSGTQFTLTISDVVCDDAATYYCAGHKGTTNDGNDFGGGTEVEIK
# notes: rabbit; also called B1-#210
# B5: mAb of B cell clone 38 (supernatant) (antibody, V domains shown)
# VH: EQSVEESEGGLVQPEGSLTLTCTASGFSFSNDYWICWVRQAPGKGLEWIGCGHIGSFRTTYYASWAKGRFSISKTSSTTVTLQMTSLTGADTATYFCARSPYDDGYGGFTFNLWGPGTLVTISS
# VL: ELDMTQTPSSVEAAVGGTVTVKCQVSQSIGNAIAWYQQKPGQPPKLLIYKASTLASGVPSRFKGSGSGTEFTLTISDLECADAATYYCQNYYYSNTNSFGGGTEVVVK
# notes: rabbit; also called B1-#38
# B6: mAb of B cell clone 28 (supernatant) (antibody, V domains shown)
# VH: EQSLEESGGGLVKPGASLTLTCKASGFSFSSDYDMCWVRQAPGKGLEWIGCIVTGFSGRIYYATWARGRFTFSRTSSTTLTLQMTSLTAADTATYFCARDSGNYNWDLWGPGTLVTISS
# VL: ELDLTQTPTSVSAAVGGTVTIKCQASQSISDYLSWYQQKPGQPPKLLIYRASTLASGVPSRFKGSGSGTEFTLTISDLECADAATYYCQSNYYGSQGCTFGGGTEVEIK
# notes: rabbit; also called B1-#28
# B7: mAb of B cell clone 202 (supernatant) (antibody, V domains shown)
# VH: SQSLEESGGGLVKPGASLTLTCKGSGFSFNGDYYMCWVRQTPGKGLEWIGCIYAAGDDTYYATWAKGRFTISKTSSTTVTLQMTSLTAADTATYFCARDQADSYAFGLWGPGTLVTISS
# VL: ELVLTQTASPVSGAVGGTVTIKCQASQNIYSNLAWYQQKPGQPPKLLIYSASKLASGVPSRFKGSGSGTEYTLTISGVQCEDAATYYCQSYYYTASADTTFGGGTEVEIK
# notes: rabbit
# B8: mAb of B cell clone 15 (supernatant) (antibody, V domains shown)
# VH: EQSVEESGGDLVKPGASLTLTCTASGFSSSSSAYMCWVRQAPGKGLEWIACIFIGSGSDSYYATWAKGRFTISKTSSTTVTLQMTSLTAADTATYFCARNTYDWNGYIYGPCYFGLWGPGTLVTISS
# VL: ELDLTQTPSSVEAAVGGTVTIKCQASQSIYNYLAWYQQKPGHSPKLLIYDVSKLASGVSSRFKGSGSGTEFTLTISDLECADAATYYCQSYYGNTVSFTFGGGTEVEIK
# notes: rabbit; also called B1-#15
# B9: mAb of B cell clone 221 (supernatant) (antibody, V domains shown)
# VH: QSLEESGGDLVKPGASLTLTCTASGFSFSSSYYMCWVRQAPGKGLEWIACIYGGSTGTTYYASWAKGRFTISKTSSTTVTLQMTSLTGADTATYFCARSYNSASSGYYWDLWGPGTLVTVSS
# VL: ELDLTQTPSSVEAAVGGTVTIKCQASQSIGSNLAWYQQKPGQPPKVLIYKASTLASGVPSRFKGSGSGTQFTLTISDLECADAATYYCQNNNYWSNGNHFGGGTEVVVK
# notes: rabbit
# B10: mAb of B cell clone 196 (supernatant) (antibody, V domains shown)
# VH: QEQLVESGGGLVQPEGSLTLTCTDSGFSFTKNYYMCWVRQAPGKGLEWIGCIYAGSTNTFYASWAKGRFTISKASSTTVDLKMTSLTVADTATYFCARDFVSYLNLWGPGTLVTVSS
# VL: ELDMTQTPSSTSAAVGGTVTIKCQASQSVYNNNQLSWFQQKPGQPPKRLIYGASTLESGVPSRFSGSGSGTQFTLTISDLECDDAATYYCQGAVSSDYYPFGGGTEVEIK
# notes: rabbit
# B11: mAb of B cell clone 226 (supernatant) (antibody, V domains shown)
# VH: QEQLVESGGGLVQPEGSLTLTCTASGFSFSSRQYISWVRRAPGKGLEWIGAIVTVNNKVHYANWAKGRFTISEASSTTVTLQMTSLTAADTATYFCARWRTFGLWGPGTLVTVSS
# VL: ELVLTQTPSSKSVAVGDTVTINCQASENVYSNNYTSWFQQKPGQPPKQLLYYAAYRASGVPSRFKGSGSGTEFTLSISDVVCDDAATYYCSGHKDYSDDGSTFGGGTEVVVK
# notes: rabbit
# B12: mAb of B cell clone 41 (supernatant) (antibody, V domains shown)
# VH: QSVKESGGDLVKPGASLTLTCTASGFSFSSSYWICWVRQAPGKGLEWIACIYAGSSGSTYYASWAKGRFTISKTSSTTVTLQMTSLTAADTATYFCARSTSGSYGAGLGLWGPGTLVTISS
# VL: ELDMTQTASPVSGAVGGTVTIKCQASQNIYNNIGWYQQKPGQPPNLLIYGPSYLASGVPSRFKGSRSGTEYTLTISDLECADAATYYCQSDDWMSISPDIVFGGGTEVEIK
# notes: rabbit; also called B1-#41-1
# B13: mAb of B cell clone 18 (supernatant) (antibody, V domains shown)
# VH: EQSVKESGGGLVKPGGTLTLTCIVSGFSLSRYAVTWVRQAPGKGPEWIGYIDTSSGNKDYANWVNGRFTISKTSSTTVTLQMTSLTAADTATYFCARGFSMFKLWGPGTLVTISS
# VL: ELVMTQTPSSVSAAVGGTVTISCQASQSVYNNNNLAWYQQKPGQPPKRLIYSASTLDSGVPSRFSGSGSGTQFTLTISDLECDDAATYYCAGGYTYNINIFGGGTEVEIK
# notes: rabbit; also called B1-#18
# B14: mAb of B cell clone 7 (supernatant) (antibody, V domains shown)
# VH: EQSLEESGGGLVKPGASLTVTCAVSGFSLNSYAITWVRQAPGKGLEYIGYIDTGASITDYASWAKGRFTISKTSSTTVTLEMTSLTDADTATYFCARGFSMFKLWGPGTLVTISS
# VL: ELDLTQTPSSVSAAVGGTVTISCQASQSVYGNNRLAWYHQKPGQPPKRLIYLASTLDSGVPSRFKGAGSGTQFTLTISDLECDDAATYYCAGGYAGNFNAFGGGTEVEIK
# notes: rabbit; also called B1-#7
# B15: mAb of B cell clone 220 (supernatant) (antibody, V domains shown)
# VH: QSVEESGGGLVQPEGSLTLTCTASGFSFSGIVYMCWVRQAPGKGLEWIACAFVGSGGSTYYATWATGRFTISKTSSTTVTLQMTSLTAADTATYFCAKSYNYNGLGLWGPGTLVTVSS
# VL: ELDMTQTPASVSAAVGGTVTIKCQASQSITNALAWYQQKPGQPPKLLIYRASTLASGVSSRFKGSGSGTEFTLTISDLECADAATYYCQCSYYGSTYFGSPFGGGTEVEIK
# notes: rabbit; also called B1-#220
# B16: mAb of B cell clone 27 (supernatant) (antibody, V domains shown)
# VH: EQSVKESGGGLVQPEGSLTLTCTVSGFSFSGSYWICWVRQAPGKGLEWIACIYGDSIATYYPNWAKGRFTISKTSSTTVTLQMASLTGADTATYFCARDRNGGSGAYGWDLWGPGTLVTISS
# VL: ELDLTQTPASVSEPVGGTVTITCQASQSISSYLSWYQQTPGQPPKLLIYKASTLASGVPSRFKGSGSGTEFTLTISDLECADAATYYCQSYYYISATVDNTFGGGTEVEIK
# notes: rabbit; also called B1-#27
# B17: mAb of B cell clone 224 (supernatant) (antibody, V domains shown)
# VH: EQSVEESGGGLVQPEGSLTLTCTASGIDFSSGAWICWVRQAPGKGLELIACIFTTSGFTYYASWAKGRFTISKTSSTTVTLQMTSLTAADTATYFCARDIYSYGMDLWGPGTLVTISS
# VL: ELVLTQTPSSVSEPVGGTVTIKCQASQSISSSYLAWYQQKPGQPPKFLIYSASTLASGVPSRFKGSGSGTEFTLTISDLECADAATYYCQSTYISSSNYGAAFGGGTEVEIK
# notes: rabbit
# B18: mAb of B cell clone 25 (supernatant) (antibody, V domains shown)
# VH: EQSVKESGGGLVQPEGSLTLTCKVSGIDFNYYNYYYMCWVRQAPGKGLEWIGCMSTASANIYLASWAKGRFTISEASSTTVTLQMTSLTAADTATYFCAKSHGGDGGYGVVLWGPGTLVTISS
# VL: ELDLTQTPFSVSAAVGGTVTIKCQASETISNRLAWYQQKPGQPPKLLIYSASTLESGVPSRFKGSGSGTEFTLTISDLECADAATYYCQSIRSSSGIVHPNTFGGGTEVEIK
# notes: rabbit; also called B1-#25
# B19: mAb of B cell clone 209 (supernatant) (antibody, V domains shown)
# VH: SQSVEESGGDLVKPGGTLTLTCTASRIDLNNYYYISWVRQAPGKGLEWIGVVATDSSVTWYASWAKGQFTISKTSSTTVTLQMTSLTAADTATYFCARGSGAATNGVWWVMGDGMDLWGPGTLVTVSS
# VL: ELVMTQTPASVSEPVGGTVTIKCQASQSISSYLSWYQQKPGQPPKRLIYKASTLASGVPSRFKGSGSGTEFTLTISGVQCADAATYYCQNNYHSGSSNGGGFAFGGGTEVEIK
# notes: rabbit
# B20: mAb of B cell clone 22 (supernatant) (antibody, V domains shown)
# VH: EQSLEESGGGLVKPGASLTLTCKASGFDFSSNDYMCWVRQAPGKGLEWIGCIYGGDGHTYYATWAKGRFTISKASSTTVTLQMTSLTAADTASYFCARGYSYGDTGYADAILTLDLWGPGTLVTVSS
# VL: ELDLTQTPASVEAAVGGTVTIKCQASQTIGSYLSWYQQKPGQRPKLLIYEASKLASGVPSWFKGSGSGTEFTLTISDLECADAATYYCQSNYYRAGGNYGGAFGGGTEVEIK
# notes: rabbit; also called B1-#22
# B21: mAb of B cell clone 10 (supernatant) (antibody, V domains shown)
# VH: EQSVEESGGGLVKPEGSLTLTCKASGLDFSSSYWICWVRQAPGKGLEWIACIDTGSSGSTYYASWAKGRFTVSKTSSTTVSLQMTSLTAADTATYFCASTPNSLGYDLWGPGTLVTISS
# VL: ELDLTQTPASVSAAVGGTVTIKCQASQNIVSNLAWYQQKPGQRPKLLIYYASTLASGVPSRFKGSGSGTEYTLTISDLECADAATYYCQNNAGIYGNYGHGFGGGTELEIK
# notes: rabbit; also called B1-#10
# B22: mAb of B cell clone 19 (supernatant) (antibody, V domains shown)
# VH: EQSVEESGGGLVKPEGSLTLTCKASGLDFSSSYWSCWVRQTPGRGLEWIGCIDVGSSGGSYYASWARGRFTVSKGSSTTVTLQMTSLTAADTATYFCASTTTNVFGYDLWGPGTLVTVSS
# VL: ELDLTQTPASVSEPVGGTVTIKCQASQNIYNNLAWYQQKPGQPPKLLIYYASTLASGVPPRFSGSGSGTEYTLTISDLECDDAATYYCQNNAGIYGGYGHGFGGGTEVVVK
# notes: rabbit; also called B1-#19
# Molecular target: T1, human LILRB1 recombinant protein (human, UniProt Q8NHL6 24-461)
# T1 construct: The ELISA method says only 'LILRB1 recombinant proteins' coated on plates; also called leukocyte immunoglobulin-like receptor subfamily B member 1
# T1 sequence (Q8NHL6 24-461 limits assumed): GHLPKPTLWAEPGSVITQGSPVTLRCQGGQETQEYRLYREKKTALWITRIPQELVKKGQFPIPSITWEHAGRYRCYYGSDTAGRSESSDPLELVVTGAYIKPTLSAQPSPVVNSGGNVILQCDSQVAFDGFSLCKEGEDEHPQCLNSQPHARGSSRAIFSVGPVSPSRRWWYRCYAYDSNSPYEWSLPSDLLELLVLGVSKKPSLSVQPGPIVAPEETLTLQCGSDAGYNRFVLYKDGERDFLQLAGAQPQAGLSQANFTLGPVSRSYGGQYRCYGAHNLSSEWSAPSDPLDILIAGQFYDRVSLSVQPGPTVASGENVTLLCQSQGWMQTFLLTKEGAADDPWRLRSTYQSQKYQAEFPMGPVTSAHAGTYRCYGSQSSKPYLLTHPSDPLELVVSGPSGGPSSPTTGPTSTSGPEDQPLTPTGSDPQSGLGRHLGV
# Assay: ELISA, B cell supernatant
row,OD450 [OD450],Binder
1,1.75,B1
2,2.28,B2
3,2.09,B3
4,1.75,B4
5,2.32,B5
6,2.27,B6
7,1.95,B7
8,2.5,B8
9,1.64,B9
10,2.27,B10
11,2.38,B11
12,2.26,B12
13,2.41,B13
14,2.4,B14
15,2.24,B15
16,2.56,B16
17,2.09,B17
18,2.3,B18
19,2.18,B19
20,1.84,B20
21,2.17,B21
22,2.32,B22
